Measured values reported in the RNAGym collection of RNA variant scans (doi:10.1073/pnas.2313332121).
Variants at the floor of the assay were thinned out.

B1: TPR 5TU (parent)
chain: GGAUCUUCUCGAUCUAACAAAAAAGACAAAUCUGCCACAAAGCUUGAGAGCAUCUUCGGAUGCAGAGGCGGCAGCCUUCGGUGGCGCGAUAGCGCCAACGUUCUCAACUAUGACACGCAAAACGCGUGCUCCGUUGAAUGGAGUUUAUCAUG

Variants of: B1
Test: polymerase ribozyme fitness, log enrichment relative to wild type (log ratio); higher = more active; in vitro selection for triplet polymerase activity
Procedure, shortened: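 Mutant libraries were PCR-built and transcribed for each subunit of a heterodimeric triplet polymerase ribozyme and selected for one round in triplicate at −7 °C, frozen, before gel excision of extended constructs and streptavidin-bead capture. Input and output libraries were Illumina-sequenced, keeping genotypes with ≥10 input reads and ≥1 read per output. Fitness is a logarithmic ratio of genotype to wild-type enrichment, in base 2, using inverse-variance-weighted replicate averages.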

Point of comparison: A21U C57G C93A, “polymerase ribozyme fitness (log ratio)” value -2.34. Against it:
- A22U C105U G136C — lower, -2.55
- A21G C75U — higher, 0.894
- A22C A52C — higher, -1.04
- A23C A41C C85A U90G G124U U135G — lower, ≤ -4.2
- A22C C69U C93U — higher, -1.59
- A21G G124C — higher, -0.489
- A22C G65C G80U A91G — lower, ≤ -4.2
- A21G G59C U102G G124A — lower, -3.04
- A22U A30C C32A A60C C85G G86A A89U A110G U135G U144G — lower, ≤ -4.2
- A22G C95U A119G — higher, 0.832
- A22U G70U C87A A119U — lower, ≤ -4.2
- A21G A138G — lower, -3.38
- A21U A39G A52C G58A G80A G83U C85A C93A — lower, ≤ -4.2
- A22U U55G C57U — higher, 0.196
- A23U A28G C32G C85U G128U C129A U146G — lower, -4.14
- A22U A28U C38G C51U G83C — lower, ≤ -4.2
- A22G C87U — higher, -0.258
- A22G A37C G50C A64G G65C G88A A110G — lower, ≤ -4.2
- A22G C32G A40C G84A — lower, -4.13
- A23C C79U C96U C99A — lower, ≤ -4.2
- A22U A24G C43U C57G G59A A89G G92C U135A — lower, ≤ -4.2
- A23G C85A — lower, -2.98
- A22U A49U U55A G84U G100U C108U — lower, ≤ -4.2
- A23C G58A C96U A106G — lower, ≤ -4.2
- A23C U55A — lower, -3.85
- A23G G59U C75G U90C C129A — lower, ≤ -4.2
- A23U A24U A73G G88A A91C C114U — lower, ≤ -4.2
- A23G C27A C32U G50C A73G C85G — lower, ≤ -4.2
- A22U A39C G59C G143A — lower, -4.09
- A22U G84A — higher, -0.556
- A21U C38U U135C — lower, -3.08
- A23U G42A C51U G71A G94A U101G — lower, ≤ -4.2
- A22U C87G U104A C105A — lower, ≤ -4.2
- A22C A40U G81U C93A C99U C116A — lower, -3.08
- A22C G42U A47G C76G A91G A106U A110G — lower, ≤ -4.2
- A23C C35A C87A — lower, -4.05
- A23U C54U C57U G68A C87A A91G G133U — lower, ≤ -4.2
- A22U C57U — higher, -0.0575
- A22G G83C — higher, -0.878
- A21U C35U G58A G68A A115G C118U G141A — lower, ≤ -4.2
- A21G A52G C87U U90G A106G A107G — lower, ≤ -4.2
- A22C G84U A91U A107C G136C — lower, ≤ -4.2
- A22G C85A G143C — lower, -2.92
- A21G A89G C99U — higher, -1.34
- A23U C79U U101G G141C — lower, ≤ -4.2
- A22U C38U U53A G74C U90C A120U — lower, ≤ -4.2
- A22G A41G C51A C76A G94U A97U G141A — lower, ≤ -4.2
- A22U — higher, 0.491
- A22G — higher, 0.56
- A22C — higher, -0.18
- A22C C51U U56A G92U G100C U101G C103G G143U G152A — lower, ≤ -4.2
- A23U C76G C93G — lower, ≤ -4.2
- A22U A47U C51U C95A C99U — higher, -1.72
- A23G U56A — within 0.2 log units, -2.39
- A22G C35A A107C — lower, ≤ -4.2
- A22G G48C G59A G83A — lower, -4.06
- A22U U82C C93G C103G U151G — lower, ≤ -4.2
- A23C C118U U144A — lower, ≤ -4.2
- A22C A28G G48C G62A A64C C85U — lower, ≤ -4.2
- A22U A29U A39U U55A C79A C93G — lower, ≤ -4.2
- A22U G68U G74A U78A G92A C125A G140U U145G — lower, ≤ -4.2
- A23C A30C A52C C95U U144A — lower, ≤ -4.2
- A22C G50C C57G G80U C87A A150U — lower, ≤ -4.2
- A23U C54G U61A C72A G86A G141A — lower, ≤ -4.2
- A22C C85G — within 0.2 log units, -2.43
- A22C G81A — higher, -0.137
- A22C G71C C79U C95G G143A U144C — lower, ≤ -4.2
- A22G G84U — lower, -2.74
- A23C C27U A47C C57A A73G A91G U101G U134A — lower, ≤ -4.2
- A22C A37U G48C C87U G124A U134C — lower, -4.18
- A22C G86A U101A G141A A142G — lower, ≤ -4.2
- A22U U53C G92U — higher, -0.0274
- A21U A30U U33A C54G C87G — lower, ≤ -4.2
- A21U U44G C131U G136C G141U U151A — lower, ≤ -4.2
- A21G C57U C93U G136C — lower, -4.04
- A21G U56G G80U G88A C105G A120U C149U — lower, ≤ -4.2
- A21U C87A — lower, -3.82
- A22C C76A C85A C93U C132A A142U — lower, ≤ -4.2
- A22U U53A G92A G141A — lower, -3.56
- A21U U55A U56A G71U — higher, -1.72
- A22C A98G — higher, -0.486
- A21U A22U G46A G48C U56A G70C G83U G124A — lower, ≤ -4.2
- A21U A73G C79G G84U C149G — lower, ≤ -4.2
- A21U C57A — higher, 0.469
- A21G U55G C79G G94A C99A — lower, ≤ -4.2
- A22U C75G C76U G94C A110U A147U — lower, ≤ -4.2
- A22C C38U G83C A122G G141U — higher, 0.178
- A23C A24U U61C G83A G112U U127G — lower, ≤ -4.2
- A21G G74A A89U G92U — lower, -3.57
- A23G C76U C85A — lower, ≤ -4.2
- A23C C35U G65A A66U C76A U78G — lower, ≤ -4.2
- A22U G83C G86U C108A C129U — lower, ≤ -4.2
- A21U U135C — higher, -1.61
- A22U G50C C54A C63G A106U A119G — lower, -3.06
- A22G A89C — higher, -0.303
- A23C G25C C32U A52C C85A — lower, ≤ -4.2
- A23U G48A A113G A120U — lower, ≤ -4.2
- A23U G70U U78A G94A C95U C114U — lower, ≤ -4.2
- A21G G59C C85U U102C C116G U134A — lower, -4.09
- A21U A29C A30U C32A G86A C99U C118U U134A U145C C149G — lower, ≤ -4.2
- A21U U33A A39G C87U G136C — lower, ≤ -4.2
- A22U C54U A107U U134C U145C — lower, -4.02
- A21G G94A A97G A137G — within 0.2 log units, -2.22
- A23C A41C C54G U77A A91G C105G G126A G136A A137G — lower, ≤ -4.2
- A23U G58C G68A C79G A150G — lower, ≤ -4.2
- A23G C54G G80C C105U C108U A113C C132G — lower, ≤ -4.2
- A22U G48C G50U A120U U145C — lower, -2.9
- A23C A40U G48U G94C C99G U144A — lower, ≤ -4.2
- A22C G86A — higher, -1.57
- A22C A40C C63G — higher, 0.514
- A22G A30U G65C G136A — lower, ≤ -4.2
- A23U A28G C87U U145A — lower, ≤ -4.2
- A23C G42C U77A G80C U101G — lower, ≤ -4.2
- A22G G86U — higher, -0.647
- A23C U53C G58U G94C A115U C129U — lower, ≤ -4.2
- A23U G42U G58C G65U C75G G141U — lower, ≤ -4.2
- A23U C93G — lower, ≤ -4.2
- A21U U101C — higher, 0.366
- A22G U44A U53C G67C C99G G126A U134C — lower, ≤ -4.2
- A22C C51U U55G G67A G84C A115U G140C — lower, ≤ -4.2
- A21G U31A A41G C51U C87A C118A U139A C149G — lower, ≤ -4.2
- A23G C54G U56A A138U G140U U146C — lower, ≤ -4.2
- A21G C36G U53C — lower, -3.97
- A21U A29G C32A A64U G68U G84U A121U — lower, ≤ -4.2
- A22U C54A G59C A122C G141A — higher, -0.175
- A22G G59C G62C C63U C87G A89U A120C G143C — lower, -3.94
- A22G U82A G83A C105U — higher, 0.185
- A22U A26G C36A G42U C96G G128U C132G U144G — lower, ≤ -4.2
- A22G A40G G42C C79A G94C — lower, ≤ -4.2
- A23G C103A — lower, -3.88
- A22U C43A C57G C93U C96U — lower, ≤ -4.2
- A23G C54A — lower, -3.28
- A22U G50C C63U G71A G84A G117U A122U — lower, -4
- A21U C35A A106U A119U A138C — lower, ≤ -4.2
- A23C C131G U134G — lower, ≤ -4.2
- A23C G34U — lower, -3.82
- A22C C96U — higher, -0.0389
- A22C C79A G83U A115G G141A — lower, ≤ -4.2
- A21U G34U C54G U61G C108G G140A U145C — lower, -4.13
- A22G G34C C95U A138G — lower, ≤ -4.2
- A22U C35A G65A C69A C116U G117C — lower, -3.86
- A23G A37G C95A C118G G140A — lower, ≤ -4.2
- A23U A30C C35A A106C — lower, ≤ -4.2
- A22C G34A A64G U144G U151A — lower, -4.04
- A23U C63A C114G — lower, ≤ -4.2
- A22C A37C G59U A89U C93G A119U — lower, ≤ -4.2
- A23G A29U G59A G94A — lower, ≤ -4.2
- A23U C43U A73U C85A A97C C105G G140U — lower, ≤ -4.2
- A22G A73U C87U — lower, -3.05
- A22C C95U A138U — lower, ≤ -4.2
- A22U C85U U134G G143C C149A — lower, ≤ -4.2
- A21U C93U — higher, -0.752
- A23G A40U C76U C87U A89G G133C — lower, ≤ -4.2
- A21G G50C A66C U82C G86C C114G A120C A150G — lower, ≤ -4.2
- A22U C38U A73U C96U — higher, 0.145
- A23G C27U C93G C103G A150G — lower, ≤ -4.2
- A22G A29U G88A G117U G140A — lower, ≤ -4.2
- A21G U31G C38U A73C C87A C96U — lower, ≤ -4.2
- A23G G34U G141C — lower, ≤ -4.2
- A21U C116U — higher, 0.00754
- A22C G46A C76U — lower, ≤ -4.2
- A22G C54U C85U C103U C132U A147C — lower, -3.75
- A22C C57U — higher, -0.765
- A23G G58U C87A A115U — lower, ≤ -4.2
- A22U U61G G86A U104G — lower, ≤ -4.2
- A21U A52G G92A G124C — lower, -3.99
